In paper PMC6389893:

What was measured:
Assay in all cases: pull-down; GST fusion proteins (2 µg) on agarose beads, nuclease-treated, with in vitro translated [35S]-TRIM33; NETN buffer (20 mM Tris HCl pH 7.5, 100 mM NaCl, 1 mM EDTA, 0.5% NP-40, 1 mM DTT) with 200 µg/ml ethidium bromide, 1 h at 4 °C; phosphoimaging, bound as percent of input
[1] = target: GST-IN C-terminal domain (HIV-1)
[2] = target: GST-IN N-terminal domain (HIV-1)
[3] = target: GST-IN catalytic core domain (HIV-1)
[4] = target: GST-IN full length (HIV-1)

B1: in vitro translated [35S]-TRIM33 (natural protein)
chain: MAENKGGGEAESGGGGSGSAPVTAGAAGPAAQEAEPPLTAVLVEEEEEEGGRAGAEGGAAGPDDGGVAAASSGSAQAASSPAASVGTGVAGGAVSTPAPAPASAPAPGPSAGPPPGPPASLLDTCAVCQQSLQSRREAEPKLLPCLHSFCLRCLPEPERQLSVPIPGGSNGDIQQVGVIRCPVCRQECRQIDLVDNYFVKDTSEAPSSSDEKSEQVCTSCEDNASAVGFCVECGEWLCKTCIEAHQRVKFTKDHLIRKKEDVSESVGASGQRPVFCPVHKQEQLKLFCETCDRLTCRDCQLLEHKEHRYQFLEEAFQNQKGAIENLLAKLLEKKNYVHFAATQVQNRIKEVNETNKRVEQEIKVAIFTLINEINKKGKSLLQQLENVTKERQMKLLQQQNDITGLSRQVKHVMNFTNWAIASGSSTALLYSKRLITFQLRHILKARCDPVPAANGAIRFHCDPTFWAKNVVNLGNLVIESKPAPGYTPNVVVGQVPPGTNHISKTPGQINLAQLRLQHMQQQVYAQKHQQLQQMRMQQPPAPVPTTTTTTQQHPRQAAPQMLQQQPPRLISVQTMQRGNMNCGAFQAHQMRLAQNAARIPGIPRHSGPQYSMMQPHLQRQHSNPGHAGPFPVVSVHNTTINPTSPTTATMANANRGPTSPSVTAIELIPSVTNPENLPSLPDIPPIQLEDAGSSSLDNLLSRYISGSHLPPQPTSTMNPSPGPSALSPGSSGLSNSHTPVRPPSTSSTGSRGSCGSSGRTAEKTSLSFKSDQVKVKQEPGTEDEICSFSGGVKQEKTEDGRRSACMLSSPESSLTPPLSTNLHLESELDALASLENHVKIEPADMNESCKQSGLSSLVNGKSPIRSLMHRSARIGGDGNNKDDDPNEDWCAVCQNGGDLLCCEKCPKVFHLTCHVPTLLSFPSGDWICTFCRDIGKPEVEYDCDNLQHSKKGKTAQGLSPVDQRKCERLLLYLYCHELSIEFQEPVPASIPNYYKIIKKPMDLSTVKKKLQKKHSQHYQIPDDFVADVRLIFKNCERFNEMMKVVQVYADTQEINLKADSEVAQAGKAVALYFEDKLTEIYSDRTFAPLPEFEQEEDDGEVTEDSDEDFIQPRRKRLKSDERPVHIK
modifications: [35S]-labeled
[1]
  percent of radiolabeled input bound: > 8.5%
[2]
  percent of radiolabeled input bound: < 3%
[3]
  percent of radiolabeled input bound: < 3%
[4]
  percent of radiolabeled input bound: > 8.5%
